Results on ten sequences are retold here after the DeepSol protein solubility set.

The nature of the data set: soluble on expression in E. coli; label from the status in PepcDB or PDB records.
On to “MGRTQPCGGSCISSTYTLKKNRPCGWSAPPGSRILNQQPQGWPHNQTGCNVHKKIVVPSATDMATRFTQDSFVFDCLSMYYVIDDPWAENCLAAGVNATNVTFGTEQPWDIVLRDFDSGLEKIERSPYLALATNRQEIDAANKQGKLAVIIGTQGSAMVDLEFHRLRTMHRLGMRYFGLAYTGPTMFADGCGESRNAGLSFAGIELIDACNDLGLILDLSHVGHRSREETVARSRFPVCTHSNSYALNPNDRNTTDETARAIRAKGGIMGICGLPKTVHPENATLNELLDHADHWVKTIDAAHVGFGLDFVEAYKSDRSTMPAASRLWRTRRPDIFGTVEEFHLQDYPLGIASIKQLPNLTQGLFDRGYAEKEVAGIIGGNWLRHFTEVYG”, for which the “soluble on expression in E. coli” value is recorded as “not soluble”.

Take “MTEASEINLSDIKGPIDVNTPITNHRTALIQNYSTKPKLTYQTVFGVNGPLVIVHNVKFPMFNEIVKITLPNGQIRMGQVLESSKNKAVVQVFEGTTGVDAKFTTCEFTGDIFRSPVSLDMLGRIFNGSGKPIDKGPPVLPEDYLDINGQPINPFNRIYPEEMIQTGISAIDVMNSIARGQKIPIFSAAGLPHNEIAAQIVRQGGLVQLPGRNNETVNFAIVFAAMGVNMETARFFKQDFEECGSMDNVCLFLNLANDPTIERIITPRIALTAAEFFAYHCGKHVLVVLTDMSSYAEALREISAAREEVPGRRGFPGYMYTDLATIYERAGRVKGREGSITQIPILTMPNNDITHPIPDLTGYITEGQIYIDKQLHKRLIYPPIDVLPSLSRLMKSAVGEGMTREDHSDLSNQLYACYAMGKDVQAMKAVVGVEALSPDDLLYLEFLAKFEKNFIAQGRYENRTIVESLNIGWELLRIFPREMLKRIPETLLEKYYKRKKQ”: the “soluble on expression in E. coli” value is listed as “not soluble”.

In the case of “MGSDKIHHHHHHMKADFDVLIIGAGLSGIGMACHLAEACPDKRVGILERRSAIGGTWDLFRYPGIRSDSDMFSFGYKFRPWHELKVLADGPAIRRYIADTAREYGVDKSIRFGLKVLRASWSSEDRSWTVTVQQEDSHETHSLTCKFLISCTGYYNYDHGYRPDFTGLERFQGICVHPQHWPQDLDYHGKRVIVIGSGATAVTLVPSMAGKASHVTMLQRSPSYVFSVPAYDKISAVLQKMLPASWVFGLARWRNIRLQRFIYRAARRWPQRVRAWLLSHVEQQLGHGADLRHFSPEYNPWDQRLCAVPDGDLFKAIREGKASVVTDQIDTFTETGVRLKSGRRLDADIIVTATGLQLQSLGGMEVQVDGQPRHASSLMTYKSVLMQDVPNMAHLFGYTNAPWTLKVDLAASYICRLLDHMDRHEYEVVTPGAPAGEMLDETVMDSLQSGYVQRGRNVLPRQGRKLPWRVVHNFEADRDMLTRHPVSDPALAFVRAATTARTGKASELVATRMDGTAV”, the “soluble on expression in E. coli” value is “not soluble”.

“MAGDPMIEVIGVRFKKAGKIYYFGPNGIEIKKGQNVIVETARGIEFGECVIGIRKISEEDIVAPLKSVLRLATEEDINKHKENKAKETEAFEICLKKIEEHNLVMKLIDVEYTFDNNKVIFYFTAEGRVDFRELVKDLATIFKTRIELRQIGVRDEAKMIGGLGPCGRPLCCSTFLGDFASVSIKMAKEQSLSLNPTKISGICGRLMCCLNYEQSTYEEIRKELPRVGSVVETELGKGEVVGNNVLKELVRVKLPRKNEEIIQDFKMYDVKLISGSYEGEVEDTNIRLEITDEADKALIKNLIKDNLEHHHHHH”: the “soluble on expression in E. coli” value is listed as “soluble”.

“RRKQQAPRRAAAYVSEELKAAALVDEGLDPEEHTADGEPSAKYMCPEKELARACPSYQNSPAAEFSCHEMDSESHISETSDRMADFESGSIKNEEETKEVTVPLEDTTVSDSLEQMKAVYNNFLSNSYWSNLNLNLHQPSSEKNNGSSSSSSSSSSSCGSGSFDWHQSAMAKTLQQVSQSRMLPEPSLFSTVQLYRQSSKLYGSIFTGASKFRCKDCSAAYDTLVELTVHMNETGHYRDDNHETDNNNPKRWSKPRKRSLLEMEGKEDAQKVLKCMYCGHSFESLQDLSVHMIKTKHYQKVPLKEPVTPVAAKIIPATRKKASLELELPSSPDSTGGTPKATISDTNDALQKNSNPYITPNNRYGHQNGASYAWHFEARKSQILKCMECGSSHDTLQELTAHMMVTGHFIKVTNSAMKKGKPIVETPVTPTITTLLDEKVQSVPLAATTFTSPSNTPASISPKLNVEVKKEVDKEKAVTDEKPKQKDKPGEEEEKCDISSKYHYLTENDLEESPKGGLDILKSLENTVTSAINKAQNGTPSWGGYPSIHAAYQLPNMMKLSLGSSGKSTPLKPMFGNSEIVSPTKNQTLVSPPSSQTSPMPKTNFHAMEELVKKVTEKVAKVEEKMKEPDGKLSPPKRATPSPCSSEVGEPIKMEASSDGGFRSQENSPSPPRDGCKDGSPLAEPVENGKELVKPLASSLSGSTAIITDHPPEQPFVNPLSALQSVMNIHLGKAAKPSLPALDPMSMLFKMSNSLAEKAAVATPPPLQSKKADHLDRYFYHVNNDQPIDLTKGKSDKGCSLGSVLLSPTSTAPATSSSTVTTAKTSAVVSFMSNSPLRENALSDISDMLKNLTESHTSKSSTPSSISEKSDIDGATLEEAEESTPAQKRKGRQSNWNPQHLLILQAQFAASLRQTSEGKYIMSDLSPQERMHISRFTGLSMTTISHWLANVKYQLRRTGGTKFLKNLDTGHPVFFCNDCASQIRTPSTYISHLESHLGFRLRDLSKLSTEQINSQIAQTKSPSEKMVTSSPEEDLGTSYQCKLCNRTFASKHAVKLHLSKTHGKSPEDHLLYVSELEKQ”: the “soluble on expression in E. coli” value is “soluble”.

With “AHHHHHHGSRERGVAFFSGGKDGLYALYLAEKEGIEVPYLLTLKTSIGLSPHWENLSSLKALAENMGKKLLTFDMKYGSKALAEFISSLDVDYIIAGDVFLEDHLKWINLLAEKAGIKSFEPLWGKNTLELAKEMLNAGFKYSIIAVDKNKLEKTWLGYTFSSTRDIEIFIYENPTIDPLGEGGEFHTITLSSPLFKDEFTLEKISVEESERYWWMRFRVVGNDIKNVRVKGHNSRKDG”, the “soluble on expression in E. coli” value is recorded as “not soluble”.

Turning to “MTRPDNEPARLRSVAENLAAEAAAFVRGRRAEVFGISRAGDGDGAVRAKSSPTDPVTVVDTDTERLLRDRLAQLRPGDPILGEEGGGPADVTATPSDRVTWVLDPIDGTVNFVYGIPAYAVSIGAQVGGITVAGAVADVAARTVYSAATGLGAHLTDERGRHVLRCTGVDELSMALLGTGFGYSVRCREKQAELLAHVVPLVRDVRRIGSAALDLCMVAAGRLDAYYEHGVQVWDCAAGALIAAEAGARVLLSTPRAGGAGLVVVAAAPGIADELLAALQRFNGLEPIPDALEHHHHHH”, the “soluble on expression in E. coli” value is “soluble”.

Consider “MTTMNPFLVQSTLPYLAPHFDQIANHHYRPAFDEGMQQKRAEIAAIALNPQTPDFNNTILALEQSGELITRVTSVFFAMTAAHTNDELQRLDEQFSAELAELANDIYLNGELFARVDAVWQRRESLGLDSESIRLVEVIHQRFVLAGAKLAQADKAKLKVLNTEAATLTSQFNQRLLAANKSGGLVVNDIAQLAGMSEQEIALAAEAAREKGLDNKWLIPLLNTTQQPALAEMRDRATREKLFIAGWTRAEKNDANDTRAIIQRLVEIRAQQAKLLGFPHYAAWKIADQMAKTPEAALNFMREIVPAARQRASDELASIQAVIDKQQGGFSAQPWDWAFYAEQVRREKFDLDEAQLRPYFELNTVLNEGVFWTANQLFGIKFVERFDIPVYHPDVRVWEIFDHNGVGLALFYGDFFARDSKSGGAWMGNFVEQSTLNETHPVIYNVCNYQKPAAGEPALLLWDDVITLFHEFGHTLHGLFARQRYATLSGTNTPRDFVEFPSQINEHWATHPQVFARYARHYQSGAAMPDELQQKMRNASLFNKGYEMSELLSAALLDMRWHCLEENEAMQDVDDFELRALVAENMDLPAIPPRYRSSYFAHIFGGGYAAGYYAYLWTQMLADDGYQWFVEQGGLTRENGQRFREAILSRGNSEDLERLHRQWRGKAPQIMPMLQHRGLNI”, for which the “soluble on expression in E. coli” value is “not soluble”.

Turning to “MGHHHHHHSHMAFPPGALHPLPKRQALEKSNGTSAVFNPSVLHYQQALTSAQLQQHAAFIPTDNSEIISRNGMECQESALRITKHCYCTYYPVSSSIELPQTAC”, the “soluble on expression in E. coli” value was “not soluble”.

“MTAASLDPTAFSLDAASLAARLDAVFDQALRERRLVGAVAIVARHGEILYRRAQGLADREAGRPMREDTLFRLASVTKPIVALAVLRLVARGELALDAPVTRWLPEFRPRLADGSEPLVTIHHLLTHTSGLGYWLLEGAGSVYDRLGISDGIDLRDFDLDENLRRLASAPLSFAPGSGWQYSLALDVLGAVVERATGQPLAAAVDALVAQPLGMRDCGFVSAEPERFAVPYHDGQPEPVRMRDGIEVPLPEGHGAAVRFAPSRVFEPGAYPSGGAGMYGSADDVLRALEAIRANPGFLPETLADAARRDQAGVGAETRGPGWGFGYLSAVLDDPAAAGTPQHAGTLQWGGVYGHSWFVDRALGLSVLLLTNTAYEGMSGPLTIALRDAVYAR”: the “soluble on expression in E. coli” value is reported as “soluble”.
